Data published in the supplement of paper PMC11908140.

B1: library; numbered along this chain (parent)
chain: MRKPRAAVGSGHRKQAASQEGRQKHAKNNSQAKPSACDGLARQPEEVVLQASVSSYHLFRDVAEVTAFRGSLLSWYDQEKRDLPWRRRAEDEMDLDRRAYAVWVSEVMLQQTQVATVINYYTGWMQKWPTLQDLASASLEEVNQLWAGLGYYSRGRRLQEGARKVVEELGGHMPRTAETLQQLLPGVGRYTAGAIASIAFGQATGVVDGNVARVLCRVRAIGADPSSTLVSQQLWGLAQQLVDPARPGDFNQAAMELGATVCTPQRPLCSQCPVESLCRARQRVEQEQLLASGSLSGSPDVEECAPNTGQCHLCLPPSEPWDQTLGVVNFPRKASRKPPREESSATCVLEQPGALGAQILLVQRPNSGLLAGLWEFPSVTWEPSEQLQRKALLQELQRWAGPLPATHLRHLGEVVHTFSHIKLTYQVYGLALEGQTPVTTVPPGARWLTQEEFHTAAVSTAMKKVFRVYQGQQPGTCMGSKRSQVSSPCSRKKPRMGQQVLDNFFRSHISTDAHSLNSAAQ

Variants of: B1
Assay: 8OG:A repair function score (normalized; synonymous = 0, nonsense = -1) (normalized log-likelihood score); higher = more repair activity (WT-like)
Conditions: with 8OG:A DNA repair reporter (GFP) in HEK-293 MUTYH KO cells
Summary of the method: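 With 10 pg/ml doxycycline, MUTYH knockout HEK-293 cells carrying lentiviral MUTYH cDNA NNN codon-scan libraries were co-transfected with mCherry and an 8OG:A GFP repair reporter. Viable mCherry+ cells were sorted into GFP+ (repair) and GFP− bins at 72 h, three replicates per tile, and tile amplicons were sequenced. Per-tile Rosace fitness scores were then normalized into a repair function score anchored on synonymous and nonsense distributions. Medians were fixed at 0 for synonymous and -1 for nonsense, excluding variants under 300 counts per million at the start.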

Point of comparison: A245S, “8OG:A repair function score” value 0.0557. Against it:
- I198G — lower, -1.05
- P244Q — lower, -0.604
- P404K — higher, 0.298
- G248Y — lower, -0.996
- P264Y — lower, -0.087
- W374D — lower, -0.78
- E302D — lower, -0.367
- L257G — lower, -1.04
- P437I — lower, -0.277
- M125D — lower, -0.755
- A513H — lower, -0.0076
- L268W — lower, -0.0985
- P185W — lower, -0.553
- Q78L — lower, -0.0196
- M496D — lower, 0.00779
- S294F — lower, -0.0489
- R246N — lower, -0.471
- E46W — lower, -0.0064
- S54T — lower, -0.0217
- N503G — lower, 0.00621
- C262N — lower, -1.19
- D94H — lower, -0.136
- E302H — lower, -0.259
- L180Y — lower, -0.571
- L360H — lower, -1.17
- E302P — lower, -0.223
- E302M — lower, -0.216
- F330N — lower, -1.18
- A371K — lower, -0.182
- L234N — lower, -0.855
- L423K — lower, -0.269
- H407T — lower, -0.107
- E92K — lower, -0.0744
- P299N — lower, -0.099
- S276C — lower, -0.133
- A456F — lower, -0.61
- A445L — lower, -0.363
- G171F — lower, -0.571
- M478K — lower, 0.00017
- L430R — lower, -0.655
- P474A — lower, -0.0123
- T324N — lower, -0.188
- V427N — lower, -1.15
- W235M — lower, -0.389
- L134W — lower, -0.665
- S197P — lower, -1.3
- E275F — lower, 0.0124
- C278F — lower, -1.07
- P383L — lower, -0.0053
- N307R — lower, -0.00117
- H514V — lower, 0.0053
- G186L — lower, -1.02
- Q252T — lower, -0.856
- S136M — higher, 0.116
- E64H — lower, -0.0871
- L448R — lower, -0.341
- W447I — lower, -0.784
- S515L — lower, -0.00831
- A196K — lower, -0.993
- S483F — lower, 0.0169
- F418L — lower, -0.304
- M93C — lower, 0.00101
- K80H — lower, 0.00371
- E319Y — lower, -0.0495
- P320I — lower, -0.0716
- R98T — lower, -0.164
- P437A — lower, -0.00344
- V415P — lower, -0.0885
- W146F — lower, -0.152
- A405E — higher, 0.199
- K390S — higher, 0.0865
- A254Y — lower, -0.534
- T476H — lower, -0.0339
- N517D — lower, 0.0077
- Q310L — lower, -0.0215
- G39E — lower, 0.0199
- Q78P — lower, -0.138
- C262L — lower, -1.26
- G309M — lower, -0.0498
- E451N — higher, 0.26
- E275N — lower, -0.00161
- Q50H — lower, -0.0435
- A405Y — lower, -0.204
